Measurements from article PMC9300677.

Experiments:
[1] = target: microtubules of Tuba4aΔpolyGlu (p/p) mice, containing mutant Tuba4a without C-terminal polyglutamylation (mouse (endogenous in hippocampal neurons and hippocampus)) (UniProt P68368); assay: soluble-tubulin extraction assay (TX-100 extraction); DIV15 hippocampal neurons extracted 90 s at 37 °C in MT-extraction buffer (80 mM PIPES pH 6.9, 0.3% Triton X-100, 150 mM NaCl); soluble and in-soluble (polymerized microtubules with associated MAPs) fractions compared by western blot
Chain of UniProt P68368 (P68368 whole entry, looked up, stated change not applied): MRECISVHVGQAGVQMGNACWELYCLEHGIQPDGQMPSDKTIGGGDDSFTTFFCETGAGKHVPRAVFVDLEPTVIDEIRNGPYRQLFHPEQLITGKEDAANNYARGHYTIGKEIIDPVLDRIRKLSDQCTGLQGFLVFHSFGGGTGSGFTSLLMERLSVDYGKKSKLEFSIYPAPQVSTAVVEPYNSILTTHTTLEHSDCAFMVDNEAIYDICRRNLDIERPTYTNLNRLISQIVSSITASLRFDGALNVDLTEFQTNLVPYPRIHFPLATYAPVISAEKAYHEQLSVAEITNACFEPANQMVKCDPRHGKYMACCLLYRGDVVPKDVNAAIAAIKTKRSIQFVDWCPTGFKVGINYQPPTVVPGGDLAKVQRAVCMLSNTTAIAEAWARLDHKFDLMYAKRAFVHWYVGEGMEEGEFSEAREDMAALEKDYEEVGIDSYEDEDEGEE

GSK3β [2] = target: GSK3β (UniProt Q9WV60); assay: microtubule pelleting assay, western blot quantification; settings: re-polymerization of hippocampal tubulin from adult mice; n = 3 mice per genotype; parent: est. 0.40; read off a plot
Chain of UniProt Q9WV60 (Q9WV60 whole entry, looked up): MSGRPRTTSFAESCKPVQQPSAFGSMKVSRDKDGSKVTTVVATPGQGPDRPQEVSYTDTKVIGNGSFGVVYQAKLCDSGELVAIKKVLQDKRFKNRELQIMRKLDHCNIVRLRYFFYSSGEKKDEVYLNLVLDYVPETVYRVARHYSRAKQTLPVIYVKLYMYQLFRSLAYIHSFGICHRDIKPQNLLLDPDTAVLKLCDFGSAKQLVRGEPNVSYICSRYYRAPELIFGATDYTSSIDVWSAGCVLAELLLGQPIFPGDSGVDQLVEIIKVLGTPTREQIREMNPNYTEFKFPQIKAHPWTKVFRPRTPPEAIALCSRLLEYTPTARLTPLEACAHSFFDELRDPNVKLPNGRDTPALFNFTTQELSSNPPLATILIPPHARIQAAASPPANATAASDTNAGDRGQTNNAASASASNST

GSK3α = GSK3α (UniProt Q2NL51); assay: as above; settings: re-polymerization of hippocampal tubulin from adult mice; n = 3 mice per genotype; parent: est. 0.30; read off a plot
Chain of UniProt Q2NL51 (Q2NL51 whole entry, looked up): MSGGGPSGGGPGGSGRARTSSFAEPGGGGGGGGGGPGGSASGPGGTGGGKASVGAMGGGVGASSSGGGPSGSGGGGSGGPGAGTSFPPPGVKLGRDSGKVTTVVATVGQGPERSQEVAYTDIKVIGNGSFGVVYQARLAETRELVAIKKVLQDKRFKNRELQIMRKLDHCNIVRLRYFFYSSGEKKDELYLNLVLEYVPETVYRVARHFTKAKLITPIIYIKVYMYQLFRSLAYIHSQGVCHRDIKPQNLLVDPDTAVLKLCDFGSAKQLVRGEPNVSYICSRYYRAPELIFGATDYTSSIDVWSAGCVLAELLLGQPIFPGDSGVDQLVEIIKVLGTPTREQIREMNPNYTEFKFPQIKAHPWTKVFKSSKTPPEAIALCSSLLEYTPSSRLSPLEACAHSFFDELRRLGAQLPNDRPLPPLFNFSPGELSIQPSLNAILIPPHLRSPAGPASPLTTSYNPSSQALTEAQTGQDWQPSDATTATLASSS

GSK3β [3] = target: GSK3β (UniProt Q9WV60); assay: soluble-tubulin extraction assay, western blot quantification; settings: DIV15 neurons; n = 4 independent cultures per genotype; parent: est. 1.5; read off a plot

| reduction of co-occurrence with microtubules in the in-soluble fraction against wild type (+/+) [1] | other: pellet / supernatant ratio (GSK3β [2]) | other: pellet / supernatant ratio (GSK3α) | other: in-soluble / soluble ratio (GSK3β [3]) | Substance |
| --- | --- | --- | --- | --- |
| > 50% |  |  |  | Tau (mouse, endogenous) (from UniProt P10637 1-733) (natural protein) |
|  | 0.15 | 0.15 | 0.73 | microtubules of wild-type (+/+) mice, containing polyglutamylated Tuba4a (from UniProt P68368;Q9ERD7) Tuba4aΔpolyGlu (p/p) |
| > 50% |  |  |  | MAP2a/b (from UniProt P20357 1-1828) (natural protein) |
